Source: patent publication US20140080757A1 (ZEALAND PHARMA A S, published 2014)
Each block holds one binder with its values, some of them ahead of it. Numbered stars: 1 amine (or outer) side, 2 acyl side, 3 side chain; on linkers, the order of the positions; unused ones are H or OH. Square brackets hold non-standard residues; d marks the D form. Side chains are listed from the residue outwards. * marks the point of attachment. γGlu = O=C(O)[C@H](CCC(=O)[*:2])N[*:1]; Palmitoyl = CCCCCCCCCCCCCCCC(=O)*; Aib = CC(C)(N)C(=O)O

How the values were obtained:
Experiment in all cases: cell-based or functional assay
[1] = biological target: human glucagon receptor (Glucagon-R) (human, UniProt P47871 26-477)
[2] = biological target: human glucagon-like peptide 1 receptor (GLP-1R) (human, UniProt P43220 24-463)
[3] = biological target: T1, endogenous GLP-1 receptor of a murine insulinoma cell line (murine, UniProt O35659 22-463)
T1 sequence (looked up): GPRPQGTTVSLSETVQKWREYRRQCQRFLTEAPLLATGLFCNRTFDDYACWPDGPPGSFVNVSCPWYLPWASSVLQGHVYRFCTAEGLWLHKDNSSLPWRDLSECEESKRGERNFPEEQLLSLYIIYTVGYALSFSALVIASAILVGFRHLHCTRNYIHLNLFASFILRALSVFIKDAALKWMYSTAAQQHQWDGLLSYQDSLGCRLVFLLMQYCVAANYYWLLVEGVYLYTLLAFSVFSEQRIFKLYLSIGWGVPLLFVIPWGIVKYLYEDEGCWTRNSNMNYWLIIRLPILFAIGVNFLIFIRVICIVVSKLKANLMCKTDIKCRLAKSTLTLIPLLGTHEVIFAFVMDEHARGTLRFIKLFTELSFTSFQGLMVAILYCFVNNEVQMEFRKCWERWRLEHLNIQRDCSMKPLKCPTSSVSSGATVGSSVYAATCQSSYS

[4] = biological target: endogenous glucagon receptor of primary rat hepatocytes (rat, UniProt P30082 27-485)
Sequence of endogenous glucagon receptor of primary rat hepatocytes (P30082 27-485): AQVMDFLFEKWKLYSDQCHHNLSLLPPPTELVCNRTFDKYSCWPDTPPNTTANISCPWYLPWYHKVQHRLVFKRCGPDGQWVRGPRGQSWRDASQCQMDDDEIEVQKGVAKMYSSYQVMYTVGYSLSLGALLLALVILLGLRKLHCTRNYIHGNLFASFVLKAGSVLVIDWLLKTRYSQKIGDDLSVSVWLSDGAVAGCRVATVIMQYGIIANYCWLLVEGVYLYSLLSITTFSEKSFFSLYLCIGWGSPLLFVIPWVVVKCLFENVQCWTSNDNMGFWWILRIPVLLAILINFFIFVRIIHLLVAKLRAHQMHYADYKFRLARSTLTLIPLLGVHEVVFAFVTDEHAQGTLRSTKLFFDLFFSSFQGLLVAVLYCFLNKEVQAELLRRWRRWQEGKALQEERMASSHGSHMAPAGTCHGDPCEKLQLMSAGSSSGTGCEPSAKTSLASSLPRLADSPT

Sequence of human glucagon receptor (Glucagon-R) (P47871 26-477): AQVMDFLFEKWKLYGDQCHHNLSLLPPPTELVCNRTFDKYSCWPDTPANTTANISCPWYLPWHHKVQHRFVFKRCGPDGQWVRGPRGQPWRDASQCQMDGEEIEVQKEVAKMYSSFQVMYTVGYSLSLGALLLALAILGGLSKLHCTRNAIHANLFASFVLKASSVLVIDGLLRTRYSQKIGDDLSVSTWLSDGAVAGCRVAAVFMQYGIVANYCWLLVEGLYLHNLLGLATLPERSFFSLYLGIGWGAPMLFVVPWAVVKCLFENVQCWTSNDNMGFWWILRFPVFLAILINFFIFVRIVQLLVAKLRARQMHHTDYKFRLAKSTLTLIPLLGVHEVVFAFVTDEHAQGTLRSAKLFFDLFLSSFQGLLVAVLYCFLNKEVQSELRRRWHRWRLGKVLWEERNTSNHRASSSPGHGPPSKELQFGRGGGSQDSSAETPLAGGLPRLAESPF

EC50 hGCGR CHO-K1 [nM] (cAMP) [1]: 0.25 nM
EC50 hGLP-1R CHO-K1 [nM] (cAMP) [2]: 0.13 nM
Ratio GLP-1/Glucagon (EC50 hGLP-1R / EC50 hGCGR) [2]: 0.52 ratio
EC50 GLP-1R (murine insulinoma cells) [nM] (cAMP) [3]: 0.31 nM
EC50 GLP-1R Rat hepat. [nM] (inhibition of glycogen synthesis) [4]: 1.32 nM
B1: Compound 23 (peptide)
peptide: H-H[Aib]QGTFTSDYSKYLESK([γGlu-Palmitoyl])AAHDFVEWLESA-NH2
SMILES: CCCCCCCCCCCCCCCC(=O)N[C@@H](CCC(=O)NCCCC[C@H](NC(=O)[C@H](CO)NC(=O)[C@H](CCC(=O)O)NC(=O)[C@H](CC(C)C)NC(=O)[C@H](Cc1ccc(O)cc1)NC(=O)[C@H](CCCCN)NC(=O)[C@H](CO)NC(=O)[C@H](Cc1ccc(O)cc1)NC(=O)[C@H](CC(=O)O)NC(=O)[C@H](CO)NC(=O)[C@@H](NC(=O)[C@H](Cc1ccccc1)NC(=O)[C@@H](NC(=O)CNC(=O)[C@H](CCC(N)=O)NC(=O)C(C)(C)NC(=O)[C@@H](N)Cc1c[nH]cn1)[C@@H](C)O)[C@@H](C)O)C(=O)N[C@@H](C)C(=O)N[C@@H](C)C(=O)N[C@@H](Cc1c[nH]cn1)C(=O)N[C@@H](CC(=O)O)C(=O)N[C@@H](Cc1ccccc1)C(=O)N[C@H](C(=O)N[C@@H](CCC(=O)O)C(=O)N[C@@H](Cc1c[nH]c2ccccc12)C(=O)N[C@@H](CC(C)C)C(=O)N[C@@H](CCC(=O)O)C(=O)N[C@@H](CO)C(=O)N[C@@H](C)C(N)=O)C(C)C)C(=O)O

EC50 hGCGR CHO-K1 [nM] (cAMP) [1]: 0.92 nM
EC50 hGLP-1R CHO-K1 [nM] (cAMP) [2]: 0.11 nM
Ratio GLP-1/Glucagon (EC50 hGLP-1R / EC50 hGCGR) [2]: 0.12 ratio
EC50 GLP-1R (murine insulinoma cells) [nM] (cAMP) [3]: 0.33 nM
EC50 GLP-1R Rat hepat. [nM] (inhibition of glycogen synthesis) [4]: 6.15 nM
B2: Compound 24 (peptide)
peptide: H-H[Aib]QGTFTSDYSKYLESK([γGlu-Palmitoyl])AAEDFVEWLESA-NH2
SMILES: CCCCCCCCCCCCCCCC(=O)N[C@@H](CCC(=O)NCCCC[C@H](NC(=O)[C@H](CO)NC(=O)[C@H](CCC(=O)O)NC(=O)[C@H](CC(C)C)NC(=O)[C@H](Cc1ccc(O)cc1)NC(=O)[C@H](CCCCN)NC(=O)[C@H](CO)NC(=O)[C@H](Cc1ccc(O)cc1)NC(=O)[C@H](CC(=O)O)NC(=O)[C@H](CO)NC(=O)[C@@H](NC(=O)[C@H](Cc1ccccc1)NC(=O)[C@@H](NC(=O)CNC(=O)[C@H](CCC(N)=O)NC(=O)C(C)(C)NC(=O)[C@@H](N)Cc1c[nH]cn1)[C@@H](C)O)[C@@H](C)O)C(=O)N[C@@H](C)C(=O)N[C@@H](C)C(=O)N[C@@H](CCC(=O)O)C(=O)N[C@@H](CC(=O)O)C(=O)N[C@@H](Cc1ccccc1)C(=O)N[C@H](C(=O)N[C@@H](CCC(=O)O)C(=O)N[C@@H](Cc1c[nH]c2ccccc12)C(=O)N[C@@H](CC(C)C)C(=O)N[C@@H](CCC(=O)O)C(=O)N[C@@H](CO)C(=O)N[C@@H](C)C(N)=O)C(C)C)C(=O)O
